Measured values: PMC11481484

Assays:
Assay in all cases: cross-linking + co-IP; BHK-21 cells 42 h post-electroporation with WT or mutant viral RNA cross-linked with 1 mM DSP in PBS, 10 min, room temperature, quenched with 125 mM glycine; lysis buffer 2 (10 mM sodium phosphate pH 7.4, 50 mM NaCl, 1% Triton X-100); IP with mAb E1-20 or control mAb; cross-link reversed by DTT; western blot with RuV pAb
[1] = molecular target: Rubella virus E2 envelope glycoprotein of the second-site revertant (N277I in the Y281A background) (Rubella virus (RuV))
[2] = molecular target: Rubella virus E2 envelope glycoprotein, Y281A mutant (Rubella virus (RuV))
[3] = molecular target: Rubella virus E2 envelope glycoprotein, pseudorevertant Y281V (Rubella virus (RuV))

| Molecule | Cp/E2 ratio in the E1 mAb IP, normalised to WT (ratio, WT set to 1) [1] | Cp/E2 ratio in the E1 mAb IP, normalised to WT (ratio, WT set to 1) [2] | Cp/E2 ratio in the E1 mAb IP, normalised to WT (ratio, WT set to 1) [3] |
| --- | --- | --- | --- |
| Rubella virus capsid protein, D215A (second-site revertant) (from UniProt P08563 1-300) (natural protein) | 0.85 | – | – |
| Rubella virus capsid protein, wild type (natural protein) MASTTPITMEDLQKALEAQSRALRAGLAAGASQSRRPRPPRQRDSSTSGDDSGRDSGGPRRRRGNRGRGQRKDWSRAPPPPEERQESRSQTPAPKPSRAPPQQPQPPRMQTGRGGSAPRPELGPPTNPFQAAVARGLRPPLHDPDTEAPTEACVTSWLWSEGEGAVFYRVDLHFTNLGTPPLDEDGRWDPALMYNPCGPEPPAHVVRAYNQPAGDVRGVWGKGERTYAEQDFRVGGTRWHRLLRMPVRGLDGDTAPLPPHTTERIETRSARHPWRIRFGAPQAFLAGLLLAAVAVGTARA | – | 0.31 | 0.46 |
